Source: patent publication US20230381229A1

Assays:
[1] = biological target: T1, human TIGIT, full-length, expressed on transfected HEK293 cells (human); test: flow cytometry, HEK293 transfectants, 100 nM
T1 sequence: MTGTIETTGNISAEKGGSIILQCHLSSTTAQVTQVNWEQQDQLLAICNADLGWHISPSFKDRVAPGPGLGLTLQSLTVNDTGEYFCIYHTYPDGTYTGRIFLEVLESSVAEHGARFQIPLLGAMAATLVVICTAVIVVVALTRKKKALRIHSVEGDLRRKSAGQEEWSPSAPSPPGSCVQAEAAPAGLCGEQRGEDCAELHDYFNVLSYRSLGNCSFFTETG

[2] = biological target: T2, human CD96, full-length, expressed on transfected HEK293 cells (human) (UniProt P40200); test: flow cytometry, HEK293 transfectants, 100 nM
T2 sequence: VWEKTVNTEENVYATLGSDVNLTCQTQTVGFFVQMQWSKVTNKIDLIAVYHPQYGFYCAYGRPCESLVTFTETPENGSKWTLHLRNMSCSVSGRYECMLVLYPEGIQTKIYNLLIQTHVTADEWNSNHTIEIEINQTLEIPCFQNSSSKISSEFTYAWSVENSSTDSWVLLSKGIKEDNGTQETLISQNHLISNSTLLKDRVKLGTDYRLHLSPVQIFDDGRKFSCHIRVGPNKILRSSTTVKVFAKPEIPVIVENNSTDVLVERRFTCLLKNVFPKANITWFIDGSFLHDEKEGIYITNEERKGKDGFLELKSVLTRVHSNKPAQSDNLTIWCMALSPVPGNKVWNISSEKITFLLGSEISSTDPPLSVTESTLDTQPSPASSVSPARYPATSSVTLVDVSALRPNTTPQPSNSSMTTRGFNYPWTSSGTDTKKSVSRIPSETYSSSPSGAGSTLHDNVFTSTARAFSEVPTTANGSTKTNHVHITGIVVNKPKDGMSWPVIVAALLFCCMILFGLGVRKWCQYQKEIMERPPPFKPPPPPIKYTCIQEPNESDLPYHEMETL

[3] = biological target: CD112R (Homo sapiens (Human)) (UniProt Q6DKI7); test: flow cytometry, transfected HEK293 cells, 100 nM
CD112R (Homo sapiens (Human)), sequence (Q6DKI7 whole entry): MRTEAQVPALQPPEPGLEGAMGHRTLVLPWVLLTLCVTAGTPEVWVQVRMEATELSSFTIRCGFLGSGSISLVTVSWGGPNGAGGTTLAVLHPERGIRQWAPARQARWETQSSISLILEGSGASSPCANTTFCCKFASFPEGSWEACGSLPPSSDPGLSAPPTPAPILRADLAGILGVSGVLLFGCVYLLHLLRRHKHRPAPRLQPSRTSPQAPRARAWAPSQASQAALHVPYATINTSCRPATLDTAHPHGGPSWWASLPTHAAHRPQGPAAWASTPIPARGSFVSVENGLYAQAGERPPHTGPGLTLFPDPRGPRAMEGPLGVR

human CD226 (human) = biological target: T3, human CD226 (human); test: flow cytometry, transfected HEK293 cells, 100 nM
T3 sequence: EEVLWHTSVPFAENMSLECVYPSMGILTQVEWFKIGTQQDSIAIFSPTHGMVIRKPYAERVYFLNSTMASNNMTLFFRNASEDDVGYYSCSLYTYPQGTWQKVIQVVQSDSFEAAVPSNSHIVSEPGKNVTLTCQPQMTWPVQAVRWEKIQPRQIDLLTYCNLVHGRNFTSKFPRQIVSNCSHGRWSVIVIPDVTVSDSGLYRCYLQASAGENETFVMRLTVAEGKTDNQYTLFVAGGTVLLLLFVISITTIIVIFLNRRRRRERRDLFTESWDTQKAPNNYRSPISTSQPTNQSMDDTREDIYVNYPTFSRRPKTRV

human TIGIT (human) [4] = test: flow cytometry, transfected HEK293 cells, 100 nM
human CD96 (human) = biological target: T4, human CD96 (human) (UniProt P40200); test: flow cytometry, transfected HEK293 cells, 100 nM
T4 sequence: T2 sequence

[5] = biological target: CD80 expressed on cells (Homo sapiens); test: flow cytometry, cells expressing CD80
[6] = biological target: PD-1 expressed on cells (human); test: flow cytometry, cells expressing PD-1
[7] = biological target: CD112R (Homo sapiens (Human)) (UniProt Q6DKI7)
human TIGIT (human) [8] = biological target: human TIGIT (human)
[9] = biological target: PD-1 expressed on cells (human); test: flow cytometry, Jurkat/PD-1 cells
Target sequence in this assay (chain, as listed by the source): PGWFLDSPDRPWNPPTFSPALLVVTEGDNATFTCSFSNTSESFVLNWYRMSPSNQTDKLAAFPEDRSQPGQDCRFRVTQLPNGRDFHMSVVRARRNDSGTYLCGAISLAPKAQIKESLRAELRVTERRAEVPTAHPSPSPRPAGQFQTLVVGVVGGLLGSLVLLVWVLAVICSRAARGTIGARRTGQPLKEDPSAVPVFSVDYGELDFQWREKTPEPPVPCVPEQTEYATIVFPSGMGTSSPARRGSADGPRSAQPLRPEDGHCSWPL

PD-1-Fc (Homo sapiens) = test: ForteBio, PD-1-Fc
PD-1-Fc (Homo sapiens), sequence (chain, as listed by the source limits assumed): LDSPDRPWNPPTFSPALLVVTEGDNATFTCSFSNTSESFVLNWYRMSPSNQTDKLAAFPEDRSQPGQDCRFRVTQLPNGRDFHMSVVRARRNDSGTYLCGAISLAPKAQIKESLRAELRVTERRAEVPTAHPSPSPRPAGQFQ

CD155 IgV Fc, sequence (P15151 21-142): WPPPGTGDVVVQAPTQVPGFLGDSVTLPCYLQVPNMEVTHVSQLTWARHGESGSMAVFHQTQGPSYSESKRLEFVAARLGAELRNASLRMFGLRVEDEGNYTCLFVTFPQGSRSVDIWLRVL
CTLA4-Fc (Fc fusion), sequence (chain): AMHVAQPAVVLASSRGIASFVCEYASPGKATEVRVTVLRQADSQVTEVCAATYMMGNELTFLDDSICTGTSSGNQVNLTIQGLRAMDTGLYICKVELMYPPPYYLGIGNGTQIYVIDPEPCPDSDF
CD112 ECD-Fc (Fc fusion), sequence (chain): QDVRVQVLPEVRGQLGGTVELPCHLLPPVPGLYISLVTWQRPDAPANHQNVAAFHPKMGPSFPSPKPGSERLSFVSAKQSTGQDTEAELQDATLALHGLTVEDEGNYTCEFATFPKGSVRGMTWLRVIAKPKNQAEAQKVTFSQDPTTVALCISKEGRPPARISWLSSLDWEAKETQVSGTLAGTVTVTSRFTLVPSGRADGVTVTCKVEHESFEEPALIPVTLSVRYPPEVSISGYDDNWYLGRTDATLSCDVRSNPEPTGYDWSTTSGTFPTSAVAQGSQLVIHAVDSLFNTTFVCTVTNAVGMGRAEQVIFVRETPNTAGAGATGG
human PD-1 (human), sequence (chain, as listed by the source limits assumed): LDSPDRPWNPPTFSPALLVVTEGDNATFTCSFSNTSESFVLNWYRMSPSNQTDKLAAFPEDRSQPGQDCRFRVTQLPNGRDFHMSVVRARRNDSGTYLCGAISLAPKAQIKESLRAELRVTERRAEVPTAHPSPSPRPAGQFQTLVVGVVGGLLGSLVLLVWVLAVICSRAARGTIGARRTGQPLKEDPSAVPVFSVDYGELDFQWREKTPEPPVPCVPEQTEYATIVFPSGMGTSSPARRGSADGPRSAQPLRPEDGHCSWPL

| Substance | MFI at 20 nM [5] | MFI at 20 nM [6] | Fold Change Compared to WT PD-L1 [6] | also measured |
| --- | --- | --- | --- | --- |
| CD112 ECD-Fc (Fc fusion) |  |  |  | MFI at 100 nM [1]: 29200 MFI; MFI at 100 nM [2]: 1100 MFI |
| CD155 IgV Fc (from UniProt P15151) (Fc fusion) |  |  |  | Fold ↑ to WT ECD [3]: 1.65; MFI at 100 nM [3]: 2940; MFI at 100 nM (human CD226 (human)): 4690; MFI at 100 nM (human TIGIT (human) [4]): 4690; MFI at 100 nM (human CD96 (human)): 3270 |
| CTLA4-Fc (Fc fusion) | 200000 | 59 |  |  |
| Fc Control | 132 | 59 |  | RLU (IL-2-luciferase reporter) [7]: 624 RLU; RLU (IL-2-luciferase reporter) (human PD-1 (human)): 624 RLU; RLU (IL-2-luciferase reporter) (human TIGIT (human) [8]): 624 RLU |
| variant PD-L1 ECD-Fc G15A, I36T, M97L, K111E, H202Q (Fc fusion) |  | 112 |  |  |
| variant PD-L1 ECD-Fc G15A, I36T, V129D (Fc fusion) | 136 | 114 | 0 |  |
| variant PD-L1 ECD-Fc G15A, I36T, V129D, R195G (Fc fusion) |  | 125 | 0 |  |
| variant PD-L1 ECD-Fc G15A, V129D (Fc fusion) | 128 |  | 0.7 |  |
| variant PD-L1 ECD-Fc I36T, G52R, M97L, V112A, K144E, V175A, P198T (Fc fusion) | 149 | 81 | 0 |  |
| variant PD-L1 ECD-Fc I36T, I46V, D55G, M97L, K106E, K144E, T185A, R195G (Fc fusion) | 190 | 69 | 0 |  |
| variant PD-L1 ECD-Fc I36T, M97L, A103V, Q155H (Fc fusion) | 128 | 120 | 0 |  |
| variant PD-L1 ECD-Fc K28I, S99G (Fc fusion) |  | 830 |  |  |
| variant PD-L1 ECD-Fc L35P, I36S, M97L, K111E (Fc fusion) | 155 | 190 | 0.1 |  |
| variant PD-L1 ECD-Fc M18V, I98L, L124S, P198T, L206F (Fc fusion) | 143 |  | 0.7 |  |
| variant PD-L1 ECD-Fc M18V, M97L, F193S, R195G, E200K, H202Q (Fc fusion) |  | 69 | 0 |  |
| variant PD-L1 ECD-Fc V93E, V129D (Fc fusion) | 150 |  | 0.4 |  |
| variant PD-L1 ECD-Fc V129D, H202Q (Fc fusion) | 219 |  | 0.6 | Fold Change Compared to WT PD-L1 [5]: 1.6 |
| variant PD-L1 ECD-Fc V129D, P198T (Fc fusion) | 152 |  | 1 |  |
| variant PD-L1 ECD-Fc V129D, T150A (Fc fusion) | 142 |  | 0.6 |  |
| variant PD-L2 IgV-Fc H15Q, R76G, I85F (SEQ ID NO 680) (Fc fusion) |  |  |  | Fold increase over wildtype PD-L2 IgV-Fc [9]: 0.3; MFI at 50 nM [9]: 2940; Fortebio binding to PD-1-Fc Response Units (Response Units) (PD-1-Fc (Homo sapiens)): -0.038 |
| variant PD-L2 IgV-Fc H15Q, R76G, I85F (SEQ ID NO 685) (Fc fusion) |  |  |  | Fold increase over wildtype PD-L2 IgV-Fc [9]: 0.19; MFI at 50 nM [9]: 1890; Fortebio binding to PD-1-Fc Response Units (Response Units) (PD-1-Fc (Homo sapiens)): -0.006 |
